Blank lines part the entries; values can stand above or below the binder they belong to. Starred links: 1 amine or outer side, 2 acyl side, 3 side chain; linkers in the order of their positions; H or OH if unused. Positions of bridges follow the written chain, without caps; N, C: chain ends. *: point of attachment. C20 diacid = O=C(O)CCCCCCCCCCCCCCCCCCC(=O)*; γGlu = O=C(O)[C@H](CCC(=O)[*:2])N[*:1]
Experiments:
[1] = molecular target: T1, human amylin 3(a) receptor (human calcitonin receptor + RAMP-3) (human, UniProt P30988 25-474; O60896 24-148); experiment: cell-based or functional assay
T1 sequence (looked up) 1: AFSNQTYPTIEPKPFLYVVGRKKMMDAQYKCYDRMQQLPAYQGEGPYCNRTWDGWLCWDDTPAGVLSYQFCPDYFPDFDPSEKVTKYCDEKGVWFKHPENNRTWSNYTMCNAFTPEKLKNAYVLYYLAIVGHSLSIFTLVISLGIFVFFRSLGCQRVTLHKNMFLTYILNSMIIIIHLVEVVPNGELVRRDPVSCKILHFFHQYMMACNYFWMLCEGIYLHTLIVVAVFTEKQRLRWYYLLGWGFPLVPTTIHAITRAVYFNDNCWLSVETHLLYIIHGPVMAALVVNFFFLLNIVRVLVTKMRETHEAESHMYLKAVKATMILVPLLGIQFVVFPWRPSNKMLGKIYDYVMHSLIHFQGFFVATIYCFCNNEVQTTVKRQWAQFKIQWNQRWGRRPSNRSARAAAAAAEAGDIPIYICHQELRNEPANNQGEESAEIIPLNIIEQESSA
T1 sequence (looked up) 2: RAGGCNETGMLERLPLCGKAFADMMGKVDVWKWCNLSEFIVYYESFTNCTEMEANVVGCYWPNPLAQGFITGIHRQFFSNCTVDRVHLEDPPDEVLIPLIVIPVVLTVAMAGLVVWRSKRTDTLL

[2] = molecular target: T2, human calcitonin (a) receptor (human, UniProt P30988 25-474); experiment: cell-based or functional assay
T2 sequence (looked up): T1 sequence (looked up) 1

Amylin receptor human EC50 [1]: 0.0895 nM
CTa receptor human EC50 [2]: 0.367 nM
B1: N-alpha-[(S)-4-Carboxy-4-(19-carboxynonadecanoylamino)butyryl]-Glu-Arg-[Glu1,Glu14,Arg17,Pro37]-pramlintide (peptide)
peptide: {C20 diacid-γGlu}-ERECNTATCATQRLAEFLRHSSNNFGPILPPTNVGSNTP-NH2
modifications: disulfide 4-9
SMILES: CC[C@H](C)[C@H](NC(=O)[C@@H]1CCCN1C(=O)CNC(=O)[C@H](Cc1ccccc1)NC(=O)[C@H](CC(N)=O)NC(=O)[C@H](CC(N)=O)NC(=O)[C@H](CO)NC(=O)[C@H](CO)NC(=O)[C@H](Cc1c[nH]cn1)NC(=O)[C@H](CCCNC(=N)N)NC(=O)[C@H](CC(C)C)NC(=O)[C@H](Cc1ccccc1)NC(=O)[C@H](CCC(=O)O)NC(=O)[C@H](C)NC(=O)[C@H](CC(C)C)NC(=O)[C@H](CCCNC(=N)N)NC(=O)[C@H](CCC(N)=O)NC(=O)[C@@H](NC(=O)[C@H](C)NC(=O)[C@@H]1CSSC[C@H](NC(=O)[C@H](CCC(=O)O)NC(=O)[C@H](CCCNC(=N)N)NC(=O)[C@H](CCC(=O)O)NC(=O)CC[C@H](NC(=O)CCCCCCCCCCCCCCCCCCC(=O)O)C(=O)O)C(=O)N[C@@H](CC(N)=O)C(=O)N[C@@H]([C@@H](C)O)C(=O)N[C@@H](C)C(=O)N[C@@H]([C@@H](C)O)C(=O)N1)[C@@H](C)O)C(=O)N[C@@H](CC(C)C)C(=O)N1CCC[C@H]1C(=O)N1CCC[C@H]1C(=O)N[C@H](C(=O)N[C@@H](CC(N)=O)C(=O)N[C@H](C(=O)NCC(=O)N[C@@H](CO)C(=O)N[C@@H](CC(N)=O)C(=O)N[C@H](C(=O)N1CCC[C@H]1C(N)=O)[C@@H](C)O)C(C)C)[C@@H](C)O

Amylin receptor human EC50 [1]: 0.136 nM
CTa receptor human EC50 [2]: 0.378 nM
B2: N-alpha-[(S)-4-Carboxy-4-(19-carboxynonadecanoylamino)butyryl]-Glu-Arg-[Glu1,Glu14,His17,Pro37]-pramlintide (peptide)
peptide: {C20 diacid-γGlu}-ERECNTATCATQRLAEFLHHSSNNFGPILPPTNVGSNTP-NH2
modifications: disulfide 4-9
SMILES: CC[C@H](C)[C@H](NC(=O)[C@@H]1CCCN1C(=O)CNC(=O)[C@H](Cc1ccccc1)NC(=O)[C@H](CC(N)=O)NC(=O)[C@H](CC(N)=O)NC(=O)[C@H](CO)NC(=O)[C@H](CO)NC(=O)[C@H](Cc1c[nH]cn1)NC(=O)[C@H](Cc1c[nH]cn1)NC(=O)[C@H](CC(C)C)NC(=O)[C@H](Cc1ccccc1)NC(=O)[C@H](CCC(=O)O)NC(=O)[C@H](C)NC(=O)[C@H](CC(C)C)NC(=O)[C@H](CCCNC(=N)N)NC(=O)[C@H](CCC(N)=O)NC(=O)[C@@H](NC(=O)[C@H](C)NC(=O)[C@@H]1CSSC[C@H](NC(=O)[C@H](CCC(=O)O)NC(=O)[C@H](CCCNC(=N)N)NC(=O)[C@H](CCC(=O)O)NC(=O)CC[C@H](NC(=O)CCCCCCCCCCCCCCCCCCC(=O)O)C(=O)O)C(=O)N[C@@H](CC(N)=O)C(=O)N[C@@H]([C@@H](C)O)C(=O)N[C@@H](C)C(=O)N[C@@H]([C@@H](C)O)C(=O)N1)[C@@H](C)O)C(=O)N[C@@H](CC(C)C)C(=O)N1CCC[C@H]1C(=O)N1CCC[C@H]1C(=O)N[C@H](C(=O)N[C@@H](CC(N)=O)C(=O)N[C@H](C(=O)NCC(=O)N[C@@H](CO)C(=O)N[C@@H](CC(N)=O)C(=O)N[C@H](C(=O)N1CCC[C@H]1C(N)=O)[C@@H](C)O)C(C)C)[C@@H](C)O
